The results in this text go back to patent US20140274901A1, “PROANP COMPOSITIONS AND METHODS FOR TREATING ACUTE HEART FAILURE” (Mayo Foundation for Medical Education and Research, priority 2013, published 2014).

Read-outs that look alike come from different tables or passages of the source.

One series can be described thus: in vivo. The note with it: dog, iv, 667 pmol/kg.
Series [1] in a line: Hemodynamic and renal actions after bolus intravenous injection in normal canines. It counts as in vivo, canine.
Description: Blood samples were obtained from aorta and renal vein and urine is obtained before and 2.5, 5, 10, 15, 30, 60, 120, and 180 min after injection.
(§3) The in vivo effects of canine proANP, ANP1-28, and BNP1-32 were examined in normal canines (FIG. 6).
Series [2] is described as follows: Pharmacokinetic analysis of NP immunoreactivity after bolus intravenous injection in normal canines.
Description: (§4) Blood samples were obtained from aorta and renal vein and urine is obtained before and 2.5, 5, 10, 15, 30, 60, 120, and 180 min after injection. […] These doses were similar to doses of carperitide/nesiritide in clinical use.
(§5) Canine ANP1-28 and NT-proANP concentrations are determined by specific immunoassays as described elsewhere (Ichiki et al., Clin Chem, 2011, 57:40-47; Ichiki et al., 2012, supra; Chen et al., J Am Coll Cardiol, 2000, 35:240A; and Chen et al., Am J Physiol Regul Integr Comp Physiol, 2005, 288:R1093-1097).
as §3
The next series has as its system cGMP. The experiment in a line: Plasma and urinary cGMP after bolus intravenous injection in normal canines. It counts as in vivo, canine. The following applies: for PcGMP AUC / PcGMP Cmax: plasma cGMP; for PcGMP AUC / PcGMP Cmax / UcGMP AUC / UcGMP Cmax: intravenous bolus 667 pmol/kg; for UcGMP AUC / UcGMP Cmax: urinary cGMP excretion. On the procedure:
(§1) The samples were ether extracted four times in 4 volumes of ether, dried, and reconstituted in 300 ul cGMP assay buffer, and the cGMP levels were measured using a competitive RIA cGMP kit (Perkin-Elmer, Boston, Mass.).

Another series has as its target T1, GC-A (Homo sapiens, UniProt P16066).
T1 construct: expressed in transfected cells; host or cells: HEK293
T1 sequence (P16066 33-1061): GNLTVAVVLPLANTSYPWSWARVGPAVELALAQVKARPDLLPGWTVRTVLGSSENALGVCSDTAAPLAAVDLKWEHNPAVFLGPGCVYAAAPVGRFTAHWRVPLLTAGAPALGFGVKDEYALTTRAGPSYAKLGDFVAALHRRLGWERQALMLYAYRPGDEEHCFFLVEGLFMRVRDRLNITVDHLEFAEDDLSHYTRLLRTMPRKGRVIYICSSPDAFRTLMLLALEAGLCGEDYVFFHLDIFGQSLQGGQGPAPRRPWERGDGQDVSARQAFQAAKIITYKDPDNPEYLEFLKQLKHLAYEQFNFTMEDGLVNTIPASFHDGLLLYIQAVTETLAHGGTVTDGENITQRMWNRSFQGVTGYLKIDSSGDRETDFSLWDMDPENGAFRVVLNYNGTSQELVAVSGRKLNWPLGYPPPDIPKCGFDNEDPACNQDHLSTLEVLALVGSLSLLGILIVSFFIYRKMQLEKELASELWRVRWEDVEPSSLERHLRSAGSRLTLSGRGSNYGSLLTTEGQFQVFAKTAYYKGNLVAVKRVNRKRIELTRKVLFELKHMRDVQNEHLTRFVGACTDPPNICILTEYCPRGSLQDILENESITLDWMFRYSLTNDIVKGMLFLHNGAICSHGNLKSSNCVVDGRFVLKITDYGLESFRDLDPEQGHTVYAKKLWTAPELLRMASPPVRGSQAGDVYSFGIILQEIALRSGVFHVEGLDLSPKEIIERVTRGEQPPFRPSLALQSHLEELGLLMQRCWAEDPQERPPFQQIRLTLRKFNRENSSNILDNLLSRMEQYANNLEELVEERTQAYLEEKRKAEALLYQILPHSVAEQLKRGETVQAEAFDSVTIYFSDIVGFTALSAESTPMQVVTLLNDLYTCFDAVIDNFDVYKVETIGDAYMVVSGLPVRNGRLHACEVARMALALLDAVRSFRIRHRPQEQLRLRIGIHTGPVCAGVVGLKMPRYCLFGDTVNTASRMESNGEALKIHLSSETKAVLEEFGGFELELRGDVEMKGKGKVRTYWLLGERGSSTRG
The series can be described thus: cGMP production in HEK293 cells overexpressing GC-A. The class given is cell-based.
Text: (§2) FIGS. 5A-5D depict proANP effects in vitro. FIG. 5A is a pair of graphs plotting cGMP production in GC-A or GC-B overexpressing HEK293 cells treated with proANP, proBNP, or mature ANP or BNP, as indicated. *p<0.05 vs. non-treated cells. FIG. 5B is a pair of graphs plotting cGMP production in GC-A or GC-B overexpressing HEK293 cells treated with proANP (10^−8 M) in serum or PBS, as indicated. *p<0.05 vs. non-treated cells. †p<0.05 vs. PBS-treated proANP. FIG. 5C is a series of photographs showing immunocytochemistry for collagen type I (Col I), GC-A, and corin in cardiac fibroblasts (CFs). NHS served as a negative control. Magnification is 100×. FIG. 5D is a graph plotting the time course of cGMP production in CFs treated with ANP or proANP (10^−7M). […] Data are mean±SEM.
as §1

Series [3] has as its system human cardiac fibroblasts (CFs). The experiment in a line: cGMP production in human cardiac fibroblasts. The following applies: 10^−7 M. The class given is cell-based.
Text: as §2, §1
Further studies utilized human CFs in which GC-A and proANP convertase corin exist (FIG. 5C).

Series [4] can be described thus: Processing and degradation of His-tagged proANP in human serum ex vivo.
Description: Exogenous proANP was incubated in human serum at 37° C. Processed and unprocessed proANP peptides were isolated by immunoprecipitation using His-tag beads, followed by detection via Western blotting with 6×His antibody. […] FIG. 4C is a graph plotting densitometric analysis of processed ANP1-28 from proANP that was incubated in serum from normal subjects and HF patients for the indicated times. Values are mean±SEM. *p<0.05 vs. 0 min.
Setting [5] is: 667 pmol/kg intravenous, comparison of the three NPs.
Where [6] appears, read: normal canines, 667 pmol/kg intravenous.

Description for in vivo: as §4, §5, §3

Usually AUC stands for the area under the concentration-time curve, a measure of exposure. As a reminder, the Tmax is the time from dosing to the highest level. On to `CC[C@H](C)[C@@H]1NC(=O)[C@H](CCCNC(=N)N)NC(=O)[C@H](CC(=O)O)NC(=O)[C@H](CCSC)NC(=O)[C@H](CCCNC(=N)N)NC(=O)CNC(=O)CNC(=O)[C@H](Cc2ccccc2)NC(=O)[C@@H](NC(=O)[C@H](CO)NC(=O)[C@H](CO)NC(=O)[C@H](CCCNC(=N)N)NC(=O)[C@H](CCCNC(=N)N)NC(=O)[C@H](CC(C)C)NC(=O)[C@@H](N)CO)CSSC[C@@H](C(=O)N[C@@H](CC(N)=O)C(=O)N[C@@H](CO)C(=O)N[C@@H](Cc2ccccc2)C(=O)N[C@@H](CCCNC(=N)N)C(=O)N[C@@H](Cc2ccc(O)cc2)C(=O)O)NC(=O)CNC(=O)[C@H](CC(C)C)NC(=O)CNC(=O)[C@H](CO)NC(=O)[C@H](CCC(N)=O)NC(=O)[C@H](C)NC(=O)CNC1=O` [ANP, atrial natriuretic peptide], for which, in “in vivo”, the AUC was 0.2 nM·h and the time to peak (Tmax) is 2 min.

As usually defined, the Cmax is the peak of the concentration-time curve. For orientation: half-life means the time needed for the level to fall by half in the phase considered. As for `CC[C@H](C)[C@@H]1NC(=O)[C@H](CCCNC(=N)N)NC(=O)[C@H](CC(=O)O)NC(=O)[C@H](CCSC)NC(=O)[C@H](CCCCN)NC(=O)[C@H](CCCNC(=N)N)NC(=O)CNC(=O)[C@H](Cc2ccccc2)NC(=O)[C@@H](NC(=O)CNC(=O)[C@H](CO)NC(=O)CNC(=O)[C@H](CCC(N)=O)NC(=O)[C@@H](NC(=O)[C@H](CCSC)NC(=O)[C@H](CCCCN)NC(=O)[C@@H]2CCCN2C(=O)[C@@H](N)CO)C(C)C)CSSC[C@@H](C(=O)N[C@@H](CCCCN)C(=O)N[C@H](C(=O)N[C@@H](CC(C)C)C(=O)N[C@@H](CCCNC(=N)N)C(=O)N[C@@H](CCCNC(=N)N)C(=O)N[C@@H](Cc2c[nH]cn2)C(=O)O)C(C)C)NC(=O)CNC(=O)[C@H](CC(C)C)NC(=O)CNC(=O)[C@H](CO)NC(=O)[C@H](CO)NC(=O)[C@H](CO)NC(=O)[C@H](CO)NC1=O` [BNP, B-type natriuretic peptide, reference compound], the “effect on blood pressure (BP)” value in series [1] (setting [5]) is recorded as “greatest effect”. In addition, in series [2] (dog, plasma, iv, 667 pmol/kg), the AUC was 0.0517 nM·h, the highest concentration (Cmax) was 0.43 nM, the Tmax was 2 min and the half-life was 3.7 min. In series [2] (setting [6]), the “decline of plasma immunoreactivity after the peak” value is given as “decreased rapidly”. Besides, in the series with cGMP, the “PcGMP AUC” value was 13406.9 pmol·min/mL, the “PcGMP Cmax” value worked out at 255.4 pmol/mL, the “UcGMP AUC” value stood at 207454 pmol·min/mL and the “UcGMP Cmax” value is 6936.2 pmol/mL.

B1: proANP (protein, listed as Homo sapiens)
chain: NPMYNAVSNADLMDFKNLLDHLEEKMPLEDEVVPPQVLSEPNEEAGAALSPLPEVPPWTGEVSPAQRDGGALGRGPWDSSDRSALLKSKLRALLTAPRSLRRSSCFGGRMDRIGAQSGLGCNSFRY
modifications: His tag in serum
notes: 126 amino acid pro form of atrial natriuretic peptide
As for B1, in series [1] (667 pmol/kg intravenous), the “effect on cardiac output” value is on record as “less than that of either ANP or BNP” and the “effect on renal blood flow” value is “less effect on renal blood flow”. Also, in series [1] (setting [5]), the “diuretic and natriuretic actions (urine volume, urinary sodium excretion)” value was “strongest and longest”; the “effect on blood pressure (BP)” value is given as “less of an effect on BP as compared to the other two NPs”. In addition, the “effect on heart rate” value in series [1] (first 90 minutes, then increased by about 120 minutes) is recorded as “less than that of ANP or BNP”. Besides, in the series with GC-A (HEK293 cells overexpressing GC-A), the cGMP production entry was “lower than ANP but much higher than proBNP”. In addition, the “cGMP production by proANP treated in serum for 5 minutes” value in the series with GC-A (proANP 10^−8 M, treated in serum 5 minutes, versus untreated proANP) is reported as “stimulated cGMP production significantly as compared to untreated proANP”. Further, the “cGMP production by proANP treated in serum for 180 minutes” value in the series with GC-A (proANP 10^−8 M, treated in serum 180 minutes) was “decreased”. In addition, the “cGMP production relative to ANP” value in series [3] (after 60 minutes) is “about equal”. Besides, in series [3] (all time points), the “cGMP levels compared to 0 minutes” value was “significant increases in cGMP levels”. In addition, the “cGMP production relative to ANP” value in series [3] (first 30 minutes) is recorded as “about half as much as ANP”. Further, the “NPi AUC” value in series [2] (NP immunoreactivity, normal canines, equimolar intravenous bolus 667 pmol/kg) turned out to be 28.1 pmol·min/mL. In series [2] (setting [6]), the “AUC for NP immunoreactivity relative to ANP” value was “twice that of ANP”, the “decline of plasma immunoreactivity after the peak” value is “decreased more slowly than ANP or BNP” and the “time of peak plasma immunoreactivity after injection” value stood at 2 min. This molecule displayed a half-life in series [2] (normal canines, equimolar intravenous bolus 667 pmol/kg) of 20.7 min. The “half-life relative to ANP” value in series [2] (normal canines, pharmacokinetic analysis) is on record as “about 4 times”. Further, the peak concentration (Cmax) in series [2] (read-out: NPi Cmax, NP immunoreactivity, normal canines, equimolar intravenous bolus 667 pmol/kg) was 0.96 nM. Moreover, in the series with cGMP (667 pmol/kg intravenous), the “AUC for plasma cGMP (PcGMP) relative to ANP or BNP” value is on record as “less than that for ANP or BNP” and the “AUC for urinary cGMP excretion (UcGMP) relative to ANP or BNP” value is reported as “twice that of ANP or BNP”. Besides, in the series with cGMP, the “PcGMP AUC” value is 6110.5 pmol·min/mL, the “PcGMP Cmax” value is 93.8 pmol/mL, the “UcGMP AUC” value came to 420368 pmol·min/mL and the “UcGMP Cmax” value was found to be 7027.8 pmol/mL. Further, the “processing of proANP in normal human serum” value in series [4] (His-tagged proANP, 37° C., 5 minute incubation, normal serum) is “processed into ANP1-28”. Besides, the “proANP processing into ANP1-28 in HF serum compared to normals” value in series [4] (serum from HF patients) is “preserved”.
